Reference: patent US20180188270A1, “DIAGNOSTIC TEST FOR ALZHEIMER'S DISEASE BASED ON IDENTIFICATION OF A PROTEOLYTIC PATHWAY” (Health Research, Inc., priority 2015, published 2018)

Legend:
FVII = biological target: T1, FVII (Homo sapiens, UniProt P08709); assay: hPEPD degradation by FVII with or without TF and/or FIIa; type: biochemical; details: 24 h
T1 construct: purchased Haematologic Technologies HCVII-0030
T1 sequence (P08709 61-466): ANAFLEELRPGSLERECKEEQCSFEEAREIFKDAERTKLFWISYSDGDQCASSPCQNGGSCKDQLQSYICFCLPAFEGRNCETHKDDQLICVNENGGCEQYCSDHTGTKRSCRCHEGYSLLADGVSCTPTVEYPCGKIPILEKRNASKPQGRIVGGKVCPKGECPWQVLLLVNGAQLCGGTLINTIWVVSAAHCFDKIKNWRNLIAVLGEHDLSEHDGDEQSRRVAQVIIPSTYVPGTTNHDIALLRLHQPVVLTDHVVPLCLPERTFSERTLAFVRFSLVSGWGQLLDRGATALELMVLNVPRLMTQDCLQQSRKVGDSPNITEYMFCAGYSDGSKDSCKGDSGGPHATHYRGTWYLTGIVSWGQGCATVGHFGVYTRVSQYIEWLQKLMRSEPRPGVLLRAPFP
Procedure: Measurement of in vitro degradation of hPEPD, mSRC and hAβ1-42. To determine whether a blood coagulation factor degrades hPEPD, hPEPD at 90 nM or lower concentrations (10 or 40 nM) was incubated with solvent, 100 nM FIIa, 100 nM FXa, 10 nM FVIIa with or without 10 nM TF, or 10 nM FVII with or without 10 nM TF and/or 100 nM FIIa in PBS in a total volume of 100 μl containing 5 mM CaCl2 for desired times at RT. […] To compare the hPEPD-degrading activities of different plasma samples, 9.2 pmol of hPEPD was incubated with 100 μl of plasma from WT mice or FVII^tTA/tTA mice at RT, with or without FIIa or FXa (10 pmol), and to maximize detection of any activity, all incubations lasted for 24 h. […] To measure remaining hPEPD, the incubated samples were cleared of potential fibrin clots by centrifugation and then analyzed by SDS-PAGE and silver staining (using the LC 6070 kit from Invitrogen), IB or measurement of hPEPD enzymatic activity. hPEPD enzymatic activity was measured using glycyl-proline as a substrate (as described in Zbucka et al., Folia Histochem Cytobiol 2007; 45 Suppl 1: S181-185). The precipitates from each incubated sample were washed with PBS twice and then resuspended in 2.5% SDS (20 μper sample); each solution was mixed with 10 μl loading dye and analyzed for hPEPD by IB, using pure hPEPD as a standard and factor FXIIIa as a binding control, respectively.

[1] = hPEPD-degrading activity of mouse plasma samples; type: in vitro ADME
Procedure: Measurement of in vitro degradation of hPEPD, mSRC and hAβ1-42. To determine whether a blood coagulation factor degrades hPEPD, hPEPD at 90 nM or lower concentrations (10 or 40 nM) was incubated with solvent, 100 nM FIIa, 100 nM FXa, 10 nM FVIIa with or without 10 nM TF, or 10 nM FVII with or without 10 nM TF and/or 100 nM FIIa in PBS in a total volume of 100 μl containing 5 mM CaCl2 for desired times at RT. […] To compare the hPEPD-degrading activities of different plasma samples, 9.2 pmol of hPEPD was incubated with 100 μl of plasma from WT mice or FVII^tTA/tTA mice at RT, with or without FIIa or FXa (10 pmol), and to maximize detection of any activity, all incubations lasted for 24 h. […] Although some clotting activity may take place before and during centrifugation of the blood sample, our experiments indicate that activation of coagulation factors, e.g., FVII, is very limited (see FIG. 5A). To measure remaining hPEPD, the incubated samples were cleared of potential fibrin clots by centrifugation and then analyzed by SDS-PAGE and silver staining (using the LC 6070 kit from Invitrogen), IB or measurement of hPEPD enzymatic activity. hPEPD enzymatic activity was measured using glycyl-proline as a substrate (as described in Zbucka et al., Folia Histochem Cytobiol 2007; 45 Suppl 1: S181-185). The precipitates from each incubated sample were washed with PBS twice and then resuspended in 2.5% SDS (20 μper sample); each solution was mixed with 10 μl loading dye and analyzed for hPEPD by IB, using pure hPEPD as a standard and factor FXIIIa as a binding control, respectively.
To measure degradation of hPEPD in plasma samples with or without removal of FVII and FVIIa, plasma samples from WT mice as described above were either used directly or immunodepleted of FVII and FVIIa before use. To remove FVII and FVIIa from plasma, 500 μl plasma was incubated with an antibody specific for FVII/FVIIa (GTX79785; 10 μg) and protein A sepharose beads for 1 h at RT. Following centrifugation at 13,000×g for 1 min at 4° C., the supernatant fraction was collected and analyzed by IB to confirm depletion of FVII and FVIIa. Next, 9.2 pmol of hPEPD was incubated with 100 μl of regular plasma or the plasma depleted of FVII/FVIIa, with or without FIIa (10 pmol) for 24 h at RT. Potential fibrin clots formed during the incubation was removed by centrifugation at the end of the incubation, and remaining hPEPD was measured by hPEPD enzymatic activity analysis.

- hPEPD degradation by FVII with or without TF after adding FIIa (FVII; FIIa 100 nM): caused marked hPEPD degradation
B1: hPEPD: recombinant human prolidase (PEPD), 6xHis tagged to the carboxy terminus (protein, UniProt P12955 2-493, looked up)
Xaa-Pro dipeptidase: AAATGPSFWLGNETLKVPLALFALNRQRLCERLRKNPAVQAGSIVVLQGGEETQRYCTDTGVLFRQESFFHWAFGVTEPGCYGVIDVDTGKSTLFVPRLPASHATWMGKIHSKEHFKEKYAVDDVQYVDEIASVLTSQKPSVLLTLRGVNTDSGSVCREASFDGISKFEVNNTILHPEIVECRVFKTDMELEVLRYTNKISSEAHREVMKAVKVGMKEYELESLFEHYCYSRGGMRHSSYTCICGSGENSAVLHYGHAGAPNDRTIQNGDMCLFDMGGEYYCFASDITCSFPANGKFTADQKAVYEAVLRSSRAVMGAMKPGVWWPDMHRLADRIHLEELAHMGILSGSVDAMVQAHLGAVFMPHGLGHFLGIDVHDVGGYPEGVERIDEPGLRSLRTARHLQPGMVLTVEPGIYFIDHLLDEALADPARASFLNREVLQRFRGFGGVRIEEDVVVTDSGIELLTCVPRTVEEIEACMAGCDKAFTPFSGPK
modifications: C-terminal 6xHis tag
notes: recombinant human prolidase (PEPD), 6xHis tagged to the carboxy terminus
- proteolysis of hPEPD by FVII with or without TF (FVII; FVII 10 nM, TF 10 nM): showed no proteolytic activity towards hPEPD
- hPEPD degradation in plasma after adding human FIIa or FXa ([1]; FVII tTA/tTA plasma): neither factor was effective
- hPEPD degradation after incubation with plasma ([1]; FVII tTA/tTA plasma, 24 h, RT): no degradation of hPEPD could be detected
- hPEPD degradation in plasma after adding human FIIa or FXa ([1]; WT plasma): markedly enhanced hPEPD degradation
- hPEPD remained after incubation with plasma ([1]; WT plasma, 24 h, RT): 88.8%
- hPEPD degradation in plasma after removal of FVII/FVIIa by immunodepletion ([1]; WT plasma, with or without FIIa): abolished the residual hPEPD degradation or FIIa-enabled hPEPD degradation
